Assay results published in patent US20150104459A1.

Target: recombinant soluble homotrimeric HA of A/common magpie/Hong Kong/5052/07 (H5N1) (Influenza A virus A/common magpie/Hong Kong/5052/2007 (H5N1))
Experiment: HA microarray, control mAb
Settings: remark: other sources report otherwise

B1: TCN-504 (3251_K17) (antibody, V domains shown)
VH: QVQLQESGPGLVKPSETLSLTCAVSGVSISNIDFYWGWIRQPPGKGLEWIGNIYYTGITFYNPSLSSRVAISIDTSKNQFSLTLTSVTAADTAMYYCARHYGDSEAINDAFDIWGQGTMLTVSS
VL: EIVMTQSPATLSVSPGERATLSCRASQSVGNSLAWYQQRPGQAPRLLIYGASTRATGIPPRFSGSGSGTEFTLTISSLQTEDFAVYYCQQYINWRPLSFGGGTKVEIK
In the case of B1, the Trimeric HA Binding RLU is reported as 17000 RLU.
